According to article PMC10715038 (Microbiology Spectrum, 2023):

What was measured:
[1] = biological target: T1, SARS-CoV-2 WHU01 Spike RBD, monomeric (SARS-CoV-2, UniProt P0DTC2); test: SPR; details: both partners purified
T1 construct: not shown: Fc (human IgG1), C-terminal, cleaved

[2] = biological target: T1, SARS-CoV-2 WHU01 Spike RBD, monomeric; test: SPR; details: both partners purified; remark: listed apart in the source

B1: Pig ACE2-huFc (soluble pig ACE2 ectodomain, human IgG1 Fc fusion) (Fc fusion)
chain: QSTTEELAKTFLEKFNLEAEDLAYQSSLASWNYNTNITDENIQKMNDARAKWSAFYEEQSRIAKTYPLDEIQTLILKRQLQALQQSGTSGLSADKSKRLNTILNTMSTIYSSGKVLDPNNPQECLVLEPGLDEIMENSKDYSRRLWAWESWRAEVGKQLRPLYEEYVVLENEMARANNYEDYGDYWRGDYEVTGTGDYDYSRNQLMEDVERTFAEIKPLYEHLHAYVRAKLMDAYPSRISPTGCLPAHLLGDMWGRFWTNLYPLTVPFGEKPSIDVTEAMVNQSWDAIRIFEEAEKFFVSIGLPNMTQGFWNNSMLTEPGDGRKVVCHPTAWDLGKGDFRIKMCTKVTMDDFLTAHHEMGHIQYDMAYAIQPYLLRNGANEGFHEAVGEIMSLSAATPHYLKALGLLPPDFYEDSETEINFLLKQALTIVGTLPFTYMLEKWRWMVFKGEIPKEQWMQKWWEMKREIVGVVEPLPHDETYCDPACLFHVAEDYSFIRYYTRTIYQFQFHEALCRTAKHEGPLYKCDISNSTEAGQKLLQMLSLGKSEPWTLALENIVGVKTMDVKPLLSYFEPLLTWLKAQNGNSSVGWNTDWTPYADQSIKVRISLKSALGKEAYEWNDNEMYLFRSSIAYAMRNYFSSAKNETIPFGAEDVWVSDLKPRISFNFFVTSPANMSDIIPRSDVEKAISMSRSRINDAFRLDDNTLEFLGIQPTLGPPDEPPVT
- Kd [1]: 1140 nM
- koff [1]: 0.1 s⁻¹
- kon [1]: 87000 M⁻¹ s⁻¹
- Kd [2]: 1000 nM
- koff [2]: 0.0395 s⁻¹
- kon [2]: 40000 M⁻¹ s⁻¹

B2: Rhinolophus sinicus bat ACE2-huFc (soluble bat ACE2 ectodomain, human IgG1 Fc fusion) (Fc fusion)
chain: QSTTEDEAKMFLDKFNTKAEDLSHQSSLASWDYNTNINDENVQKMDEAGAKWSAFYEEQSKLAKNYSLEQIQNVTVKLQLQILQQSGSPVLSEDKSKRLNSILNAMSTIYSTGKVCKPNKPQECLLLEPGLDNIMGTSKDYNERLWAWEGWRAEVGKQLRPLYEEYVVLKNEMARGYHYEDYGDYWRRDYETEESPGPGYSRDQLMKDVERIFTEIKPLYEHLHAYVRAKLMDTYPFHISPTGCLPAHLLGDMWGRFWTNLYPLTVPFGQKPNIDVTDEMLKQGWDADRIFKEAEKFFVSVGLPNMTEGFWNNSMLTEPGDGRKVVCHPTAWDLGKGDFRIKMCTKVTMEDFLTAHHEMGHIQYDMAYASQPYLLRNGANEGFHEAVGEVMSLSVATPKHLKTMGLLSPDFREDNETEINFLLKQALNIVGTLPFTYMLEKWRWMVFKGEIPKEEWMKKWWEMKRKIVGVVEPVPHDETYCDPASLFHVANDYSFIRYYTRTIFEFQFHEALCRIAQHDGPLHKCDISNSTDAGKKLHQMLSVGKSQAWTKTLEDIVDSRNMDVGPLLKYFEPLYTWLQEQNRKSYVGWNTDWSPYSDQSIKVRISLKSALGENAYEWNDNEMYLFRSSVAYAMREYFLKEKHQTILFGAENVWVSNLKPRISFNFHVTSPGNLSDIIPRPEVEGAIRMSRSRINDAFRLDDNSLEFLGIQPTLGPPYQPPVT
- Kd [1]: 1140 nM
- koff [1]: 0.0343 s⁻¹
- kon [1]: 30000 M⁻¹ s⁻¹
- Kd [2]: 1920 nM
- koff [2]: 0.0377 s⁻¹
- kon [2]: 20000 M⁻¹ s⁻¹
